To fix the notation:
B1: linear peptide 3 [modified: 5(6)-carboxyfluorescein on the N-terminus; 5(6)-carboxyfluorescein on the N-terminus] / B-RCAL (BÜHLMANN recombinant calprotectin; His6-linker-S100A9-linker-S100A8) [human] (parent)
chain 1: RSPESVAFPMFQSHWYSG
chain 2: MTCKMSQLERNIETIINTFHQYSVKLGHPDTLNQGEFKELVRKDLQNFLKKENKNEKVIEHIMEDLDTNADKQLSFEEFIMLMARLTWASHEKMHEGDEGPGHHHKPGLGEGTPLEVLFQGPMLTELEKALNSIIDVYHKYSLIKGNFHAVYRDDLKKLLETECPQYIRKKGADVWFKELDINTDGAVNFQEFLILVIKMGVAAHKKSHEESHKE

Results on five variants are retold here after paper PMC10192418, “High-affinity peptides developed against calprotectin and their application as synthetic ligands in diagnostic assays” (Nature Communications, 2023).

Variants of B1 are the subject of the assay. Description: fluorescence polarisation. Particulars: with B-RCAL (BÜHLMANN recombinant calprotectin; His6-linker-S100A9-linker-S100A8) [human]; one measurement. (In fluorescence polarisation assays a small probe gives low polarisation when free and higher when bound to something large.)
In general, Kd refers to the concentration at which binding is half-saturated. Regarding chain 1 Q12A, the Kd is 27 nM.

For chain 1 R1A, the Kd is 32 nM.

In the case of chain 1 P3A, the Kd amounted to 28 nM.

On to chain 1 V6A, for which the Kd turned out to be 39 nM.

chain 1 A7G: the Kd was 29 nM.
